Results as given in patent US20190134143A1 (BIOCELLS BEIJING BIOTECH, published 2019).

Target: T1, PDZ1/2 domain
T1 construct: domain: PDZ1/2; also called PDZ1/2 protein
Assay: SPR, Biacore 3000; PDZ1/2 amine-coupled to the chip, peptide as analyte, 1:1 binding model
Method: The immobile phase molecule (ligand) was PDZ1/2 protein with a molecular weight of approximately 20 kD at a concentration of 2 mg/ml. The mobile phase molecule (analyte) was a polypeptide to be screened with a molecular weight of approximately 2 kD at a concentration of 10 mg/ml. The CMS chip was used for fixation using a Biacore 3000 instrument. The electrophoresis buffer was PBS plus 0.005% Tween 20. Fixation was carried out using an amino coupling method. The concentration of the ligand was 10 μg/ml. The fixation buffer was 10 mM sodium acetate, pH 4.0. Fixed amount was 1400 RU, which was fixed to flow cell 2. The used flow rate was 10 μl/ml and the ligand was loaded for 1 minute. 10 mM Gly at pH 2.0+2.5 was used as a regenerant. Regeneration was carried out at a flow rate of 30 μl/min. The loading time was 30 s.

T1 sequence (P78352 65-246): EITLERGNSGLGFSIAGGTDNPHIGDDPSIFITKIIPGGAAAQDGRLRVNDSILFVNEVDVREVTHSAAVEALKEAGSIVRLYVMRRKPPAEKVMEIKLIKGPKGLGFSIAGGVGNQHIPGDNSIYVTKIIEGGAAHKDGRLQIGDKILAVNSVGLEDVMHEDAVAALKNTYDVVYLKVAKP

In the case of YGRKKRRQRRRYEKLSSIESDV [chimeric peptide YE-NA-1], the Kd is reported as 54.4 nM.
